Data published in paper PMC9232636, “Insights into the mechanism of action of the arbitrium communication system in SPbeta phages” (Nature Communications, 2022).
Residue numbers refer to the chain shown, from its start. Like-named read-outs stand apart in the source and are kept apart here.

Columns and labels:
[1] = target: AimRKat (Bacillus phage Katmira (prophage of Bacillus subtilis KATMIRA1933)) (UniProt A0A7G5CHT1); assay: BLI; details: BLI: PBS (0.01% Tween, 0.1% BSA for hydration, baseline and dissociation), AimR 0.015-2.5 uM, temperature not stated; EMSA: 50 mM Tris pH 8, 250 mM NaCl, room …
[2] = target: AimR from Katmira phage (AimR^Kat) (Katmira phage (resident phage of Bacillus subtilis subsp. KATMIRA1933)); assay: SEC-MALS; apo AimR^Kat, 50 μl at 5 mg/ml on KW-803 (Shodex); 25 mM Tris pH 8, 250 mM NaCl
[3] = target: AimR from Katmira phage (AimR^Kat) (Katmira phage (resident phage of Bacillus subtilis subsp. KATMIRA1933)); assay: SEC-MALS; AimR^Kat with 1 mM AimP^Kat peptide in the injected sample and 1 μM peptide in the running buffer; 5 mg/ml, KW-803 (Shodex); 25 mM Tris pH 8, 250 mM NaCl
[4] = target: AimR from Katmira phage (AimR^Kat) (Katmira phage (resident phage of Bacillus subtilis subsp. KATMIRA1933)); assay: ITC; Nano ITC Low Volume; protein 10 μM, peptide 50 μM; 25 mM Tris-HCl pH 8, 250 mM NaCl; 25 °C; biphasic thermograms fitted to a two-binding site model, one site per monomer of the AimR dimer
[5] = target: AimR^Kat-N273A (Katmira phage (resident phage of Bacillus subtilis subsp. KATMIRA1933)); assay: as above
[6] = target: AimR from Katmira phage (AimR^Kat) (Katmira phage (resident phage of Bacillus subtilis subsp. KATMIRA1933)); assay: thermal shift assay (ThermoFluor); 20 μM protein, 5× Sypro Orange, 0.5 μM peptide as printed; 20 mM Tris pH 8, 250 mM NaCl; 25 to 85 °C
AimRSPb-I (untagged) [7] = target: T1, AimRSPb-I (untagged) (Bacillus phage SPbeta, UniProt O64094 1-386); assay: EMSA; BLI: PBS (0.01% Tween, 0.1% BSA for hydration, baseline and dissociation), AimR 0.015-2.5 uM, temperature not stated; EMSA: 50 mM Tris pH 8, 250 mM NaCl, room temperature 10 min, 0.5 uM peptide, gel at 4 C; details: protein: recombinant; tags: N-terminal His tag removed; chain copies: 2
T1 sequence: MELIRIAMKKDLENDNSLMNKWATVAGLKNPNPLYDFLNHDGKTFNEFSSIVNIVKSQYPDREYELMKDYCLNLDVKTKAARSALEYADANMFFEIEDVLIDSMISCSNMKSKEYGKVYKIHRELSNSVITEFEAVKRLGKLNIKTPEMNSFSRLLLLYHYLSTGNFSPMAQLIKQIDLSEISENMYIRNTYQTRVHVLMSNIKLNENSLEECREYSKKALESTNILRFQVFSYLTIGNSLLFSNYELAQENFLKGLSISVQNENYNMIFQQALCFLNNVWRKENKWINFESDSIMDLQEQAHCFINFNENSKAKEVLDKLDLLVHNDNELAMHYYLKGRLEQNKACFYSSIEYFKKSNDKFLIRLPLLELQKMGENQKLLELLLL

[8] = target: T2, AimRSPb-II (C-terminal His tag) (Bacillus phage SPbeta (B. subtilis 168 …, UniProt O64094 1-386)); assay: BLI; BLI: PBS (0.01% Tween, 0.1% BSA for hydration, baseline and dissociation), AimR 0.015-2.5 uM, temperature not stated; EMSA: 50 mM Tris pH 8, 250 mM NaCl, room temperature 10 min, 0.5 uM peptide, gel at 4 C; details: protein: recombinant; chain copies: 2
T2 sequence: T1 sequence

AimRSPb-I (untagged) [9] = target: T1, AimRSPb-I (untagged); assay: as above; details: protein: recombinant; tags: N-terminal His tag removed; chain copies: 2
aimX-box^Phi = assay: Biolayer interferometry, AimR binding to aimX operator; design: species or system phage phi3T; key to kon / koff: NBD: not binding detected in the experimental conditions used. KD > 1 × 10^−6 M; details: BLI, 1:1 model
Method: (§1) The Binding affinity (KD), association (kon) and dissociation (koff) rate constants between AimRs and DNA were measured by biolayer interferometry (BLI) using the BLITz system (FortéBio). Biotinilated DNA probes (IDT) (Supplementary Table 3) were immobilised in Streptavidin biosensors (FortéBio) at 50 μg ml^−1. Biosensor hydration, baselines and dissociation analysis were carried out in phosphate buffer (PBS) supplemented with 0.01% tween and 0.1% BSA. Proteins were diluted in PBS. At least four different dilutions of AimR were used in a range between 0.015 and 2.5 μM. A blank using a chip without bounded DNA was used to subtract unspecific binding. Kinetic value calculations and data analysis were performed using BLItz Pro 1.2 software employing a 1:1 model to fit the data.

AimR^SPβ = assay: Thermal shift assay of AimR^SPβ with and without C-terminal His-tag; format: physicochemical, phage SPβ
Method: The thermal shift assay was conducted in a 7500 Fast Real time PCR System (Applied Biosystems) as previously described. Briefly, samples of 20 μl buffer (20 mM Tris pH 8 and 250 mM NaCl) containing 5× Sypro Orange (Sigma-Aldrich) and 20 μM of protein were loaded in 96-well PCR plates. To calculate the Tm in the presence of the peptide, 0.5 μM of GMPRGA or GIVRGA peptide was added to the mixture. Samples were heated from 25 to 85 °C in steps of one degree. Fluorescent intensity was plotted versus temperature and integrated with GraphPad Prism software using a Boltzmann model to calculate melting temperatures.

aimX-box^Kat = assay: Biolayer interferometry, AimR binding to aimX operator; design: species or system Katmira phage; details: BLI, 1:1 model
Method: as §1

aimX-box^SPβ = assay: as above; design: species or system phage SPβ; details: BLI
Method: as §1

[10] = target: AimR^Kat-N273A (Katmira phage (resident phage of Bacillus subtilis subsp. KATMIRA1933)); assay: ITC; Nano ITC Low Volume; protein 10 μM, peptide 50 μM; 25 mM Tris-HCl pH 8, 250 mM NaCl; 25 °C; biphasic thermograms fitted to a two-binding site model, one site per monomer of the AimR dimer; remark: listed apart in the source
[11] = target: T3, AimR from B. subtilis phage SPβ (AimR^SPβ) (Bacillus subtilis phage SPβ) (UniProt O64094)
T3 sequence: T1 sequence

Q: How did the Kd [1] turn out when “GGGAAAGTTCCAGAAATTCAAAAATCAAAAAATAAGAACATGGGG (double strand) [aimX-boxPhi BLI probe (DNA_Phi3T_b)]” was run?
A: Its Kd is > 1000 nM.

Q: How did the Kd [1] turn out when “GTTGATCACTTAAATATTAAGTTTTTATAACATCTAGTGATGGCC (double strand) [aimX-boxKat BLI probe (DNA_Kat_b)]” was run?
A: Its Kd is 23.1 nM.

Q: Which results are given for “AimR from Katmira phage (AimR^Kat) (receptor)”?
A: stoichiometry N [2]: 2; stoichiometry N [3]: 2

Q: “AimP^Kat, active (mature) Katmira AimP peptide GIVRGA” was tested. Which KD1 (monomer 1, two-binding site model) [4] did it give?
A: The KD1 (monomer 1, two-binding site model) was 4.1 nM.

Q: And the KD2 (monomer 2, two-binding site model) [4]?
A: Its KD2 (monomer 2, two-binding site model) is 5.7 nM.

Q: What about the KD1 (monomer 1, two-binding site model) [5] of the same molecule?
A: Its KD1 (monomer 1, two-binding site model) is 194 nM.

Q: And the KD2 (monomer 2, two-binding site model) [5]?
A: Its KD2 (monomer 2, two-binding site model) is 356 nM.

Q: What about the increment of the melting temperature (Tm) [6] of the same molecule?
A: Its increment of the melting temperature (Tm) is 20 °C.

Q: Which Kd [1] does the source give for “GTTGATCACTTAAATATTAGGTTTTAATAACATCTAGTGATGGCC (double strand) [aimX-boxSPb BLI probe (DNA_SPb_b)]” here?
A: Its Kd is 21.4 nM.

B1: aimX-boxPhi EMSA probe (DNA_Phi3T) (dsDNA)
DNA 1: GTTGATGTTCCAGAAATTCAAAAATCAAAAAATAAGAACATGGCC
DNA 2: GGCCATGTTCTTATTTTTTGATTTTTGAATTTCTGGAACATCAAC
Q: Does B1 bind (AimRSPb-I (untagged) [7])?
A: Result: no binding

B2: aimX-boxSPb BLI probe (DNA_SPb_b) (dsDNA)
DNA 1: GTTGATCACTTAAATATTAGGTTTTAATAACATCTAGTGATGGCC
DNA 2: GGCCATCACTAGATGTTATTAAAACCTAATATTTAAGTGATCAAC
Q: For B2, which Kd [8] is on record?
A: Its Kd is 116 nM.

Q: And the Kd (AimRSPb-I (untagged) [9])?
A: Its Kd is 19.3 nM.

B3: aimX-boxKat BLI probe (DNA_Kat_b) (dsDNA)
DNA 1: B2 DNA 1 with G20A, A26T
DNA 2: B2 DNA 2 with T20A, C26T
Q: How did the Kd [8] turn out when B3 was run?
A: The Kd was 116 nM.

Q: What about the Kd (AimRSPb-I (untagged) [9]) of the same molecule?
A: Its Kd is 19.6 nM.

B4: AimR^SPβ-I: AimR^SPβ receptor without tags (protein)
chain: T1 sequence
Q: B4 was tested. Which Kd (aimX-box^Phi; BLITz, PBS, AimR 0.015-2.5 μM) did it give?
A: The Kd was > 1000 nM.

Q: What about the koff (aimX-box^Phi; PBS + 0.01% tween and 0.1% BSA) of the same molecule?
A: The koff was “NBD^d”.

Q: What about the kon (aimX-box^Phi; PBS) of the same molecule?
A: Its kon is “NBD^d”.

Q: And the Tm (AimR^SPβ; 20 mM Tris pH 8, 250 mM NaCl, 20 μM protein, no peptide)?
A: The Tm was 53.6 °C.

Q: And the Tm (AimR^SPβ; Supplementary Fig. 5b, in °C (unit assumed))?
A: The Tm was 53.6 ± 0.7.

Q: What about the Kd (aimX-box^Kat; BLITz, streptavidin biosensor with biotinylated DNA, PBS, mean of five measurements) of the same molecule?
A: Its Kd is 19.6 nM.

Q: And the koff (aimX-box^Kat; PBS + 0.01% tween and 0.1% BSA)?
A: The koff was 0.078 ± 0.0025 s⁻¹.

Q: What about the kon (aimX-box^Kat; PBS) of the same molecule?
A: Its kon is 3.98e+06 ± 427000 M⁻¹ s⁻¹.

Q: And the Kd (aimX-box^SPβ; BLITz, streptavidin biosensor with biotinylated DNA, PBS, 1:1 model, mean of five measurements, read-out: KD)?
A: The Kd was 19.3 nM.

Q: What about the koff (aimX-box^SPβ; PBS + 0.01% tween and 0.1% BSA, 1:1 model) of the same molecule?
A: The koff was 0.0726 ± 0.00229 s⁻¹.

Q: And the kon (aimX-box^SPβ; PBS, 1:1 model)?
A: The kon was 3.75e+06 ± 324000 M⁻¹ s⁻¹.

Q: What about the Kd (aimX-box^SPβ; peer review file, stated jointly for aimX-box^SPβ and aimX-box^Kat, read-out: affinity (KD)) of the same molecule?
A: Its Kd is 19 nM.

Q: How did the KD1 (monomer 1, two-binding site model) [10] turn out when GMPRGA [AimP^SPβ, the SPβ AimP peptide GMPRGA] was run?
A: The KD1 (monomer 1, two-binding site model) was 1.3 µM.

Q: What about the KD2 (monomer 2, two-binding site model) [10] of the same molecule?
A: The KD2 (monomer 2, two-binding site model) was 1.6 µM.

Q: What about the phage titre (PFU/ml) after mitomycin C induction of the SPβ ΔaimR prophage complemented with AimR^SPβ, 5 μM peptide added (times (reduction of the titre)) [11] of the same molecule?
A: The phage titre (PFU/ml) after mitomycin C induction of the SPβ ΔaimR prophage complemented with AimR^SPβ, 5 μM peptide added (times (reduction of the titre)) was 10.
